In patent US20220396615A1 (published 2022) one finds EC50 and Kd data, which are given here for six molecules.

The target of assay [1] is T1, Tag-free human IL6 recombinant protein (GenScript, Cat. No. Z03034) (human, UniProt P05231 30-212). Nature of the assay: ELISA. In general terms: An ELISA detects its analyte on a solid surface through an enzyme-linked reagent.
Assay [2] concerns the target T1, Tag-free human IL6 recombinant protein …. The experiment in a line: SPR (Biacore). (SPR reads the build-up and loss of mass on a sensor chip optically.)

T1 sequence (P05231 30-212, one chain of several): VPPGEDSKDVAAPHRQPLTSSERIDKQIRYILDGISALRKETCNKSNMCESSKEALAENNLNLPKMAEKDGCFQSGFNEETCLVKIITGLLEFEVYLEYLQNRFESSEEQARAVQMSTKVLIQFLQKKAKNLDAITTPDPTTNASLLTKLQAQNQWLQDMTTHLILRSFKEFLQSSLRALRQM

B1: 61G1D8 (rat) (antibody, V domains shown)
VH: EVQLLESGGGLVQPGRSMKLSCAASGFTFSSFPMAWVRQTPSKALEWVATISPSGGTSYSRDSVKGRFTISRDNANSTLCLHMDSLKSEDTATYYCLRERIYNTYFDYWGQGVMVTVSS
VL: DIRMTHSPASLSASLGETVSIECLPSEDISSDLAWYQQKPGKSPQLLIYNANTLPNGVPSRFSGSRSGAQYFLKINSLQSEDVATYFCQQYDSYPYTFGTGTKLELK
Usually EC50 stands for the midpoint of the concentration-response curve. As usually defined, the Kd is the constant that tells how readily two partners part at equilibrium. B1: the EC50 in assay [1] is 0.0196 mg/L. In assay [2], the equilibrium dissociation constant (Kd) was found to be 230 pM.

B2: 41A10B8 (antibody, V domains shown)
VH: EVKLEESGGGLVQPGGSMKLSCAASGFTFSDAWMDWVRQSPDKGLEWVAEIRSKTYHPATYYTKSVRGRFTISRDDSKSSVYLQMNNLGAEDTGIYYCTRPRYYGGYFDYWGQGTTLTVSS
VL: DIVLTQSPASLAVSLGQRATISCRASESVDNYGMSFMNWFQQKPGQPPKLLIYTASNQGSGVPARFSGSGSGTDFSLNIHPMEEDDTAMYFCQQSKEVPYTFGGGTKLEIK
As for B2, the half-maximal effective concentration (EC50) in assay [1] was found to be 0.018 mg/L. In addition, the Kd in assay [2] is 84.7 pM.

B3: 49F10H6 (antibody, V domains shown)
VH: QVQLQQPGAELVKPGASVKMSCKASGYTFTNYIIHWIKQTPGQGLEWIGAIYPGNGDTSYSQKFKDKATLTADRSSSTAYMQLSSLTSEDSAVYYCARGDAGYSAWFAYWGQGTLVTVSA
VL: NIVLTQSPASLAVSLGQRATISCSASESVDSYGNNFMHWYQQRPGQPPKLLIYLASKLESGVPARFSGSGSRTEFTLTIDPVEAEDAATYYCQQNNEDPLTFGAGTKLELK
Turning to B3, the EC50 in assay [1] turned out to be 0.0153 mg/L. The equilibrium dissociation constant (Kd) in assay [2] worked out at 265 pM.

B4: 29D6B5 (antibody, V domains shown)
VH: QVQLQQSGAELAEPGASVKMSCKASGYNFNNYWMHWVKQGPGQGLEWIGYIDPRTASIYYNQKFKDKATLTADKSSSTAYMQLSSLTSEDSAVYYCARILYGKYDVWGAGTTVIVSS
VL: DVVLTQTPLSLPVSLGNQASISCRSSQSLVDSNGNTYLHWYLQKPGQSPKVLIHKVSNRFSGVPDRFSGSGSGTDFTLKISRVEAEDLGVYFCSQSTHVPPTFGGGTKLEIK
For B4, the concentration giving a half-maximal response (EC50) in assay [1] was 0.0231 mg/L. Besides, in assay [2], the Kd worked out at 1950 pM.

B5: 23A9H3 (antibody, V domains shown)
VH: QVQLQQSGAELAKPGASVKMSCKTSGYTFTNYWMHWVKQRPGQGLEWIGYVIPSTGYTDYNQSFKDKATLTADKSSNTAYMQVNSLTSEDSAVYYCASLLPGFAYWGQGTLVTVSA
VL: DVVMTQTPLSLPVSLGDQASISCRSSQSLVDSNGNTYLHWYLQKPGQSPKLLIYKVSNRFSGVPDRFSGSGSGTDFTLKISRVEAEDLGVYFCSQSTHVPPTFGGGTKLEIK
Turning to B5, in assay [1], the EC50 came to 0.0163 mg/L. Further, the equilibrium dissociation constant (Kd) in assay [2] was determined as 8770 pM.

B6: 53A2F9 (rat) (antibody, V domains shown)
VH: QVQLKESGPGLVQPSQTLSLTCTVSGFSLTSHTVSWIRQPPGRGLEWMGKMWSNGDTDYDSAIRSRLSITRDTSKSQVFLKINSLQTEDTAMYFCARYYFSSYGGGYFDYWGQGVMVTVSS
VL: DTVLTQSPALAVSLGQRVTISCRASKSVSTYMHWYQQKSGQQPKLLIYSASNLESGVPSRFSGSGSGTDFTLTIDPVEADDIANYYCQQSDELPDTFGAGTKLELK
Take B6: in assay [2], the equilibrium dissociation constant (Kd) is 0.0225 pM.
